Measured values: patent CN108203464A (GENSCRIPT NANJING CO LTD, dated 2018)
One block for each binder: values may come before it.

What was measured:
[1] = target: T1, 重组人PD-1蛋白 (recombinant human PD-1 protein) (human, UniProt Q15116 25-167, limits assumed); assay: competition ELISA: human PD-1 coated, biotin-PD-L1-Fc 0.15 μg/ml as competitor
T1 construct: also called 重组蛋白PD-1

[2] = target: human PD-1 expressed on cells (human, UniProt Q15116 25-288); assay: cell-based or functional assay
[3] = target: T2, 重组蛋白PD-1-Fc (GenScript, Z03370): human PD-1 extracellular domain fused to human IgG1 Fc (human, UniProt Q15116 25-170); assay: indirect ELISA, PD-1-Fc coated at 0.5 μg/ml
T2 construct: extracellular domain; Bought reagent (GenScript Z03370); also called PD-1-Fc重组蛋白; PD-1-Fc融合蛋白; not shown: human IgG1 Fc segment
T2 sequence (Q15116 25-170 limits assumed, one chain of several): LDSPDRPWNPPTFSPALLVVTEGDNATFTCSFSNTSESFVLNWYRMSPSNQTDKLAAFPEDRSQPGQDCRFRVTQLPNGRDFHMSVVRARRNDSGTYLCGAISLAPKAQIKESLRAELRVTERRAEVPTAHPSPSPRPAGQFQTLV

Sequence of human PD-1 expressed on cells (Q15116 25-288): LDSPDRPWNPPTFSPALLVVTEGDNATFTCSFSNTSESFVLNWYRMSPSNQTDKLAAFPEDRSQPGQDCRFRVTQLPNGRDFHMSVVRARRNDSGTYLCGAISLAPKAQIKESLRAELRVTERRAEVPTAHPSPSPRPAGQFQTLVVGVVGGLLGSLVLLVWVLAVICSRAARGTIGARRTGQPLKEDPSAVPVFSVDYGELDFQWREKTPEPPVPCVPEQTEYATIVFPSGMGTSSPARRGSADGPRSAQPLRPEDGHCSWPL
T1 sequence (Q15116 25-167 limits assumed): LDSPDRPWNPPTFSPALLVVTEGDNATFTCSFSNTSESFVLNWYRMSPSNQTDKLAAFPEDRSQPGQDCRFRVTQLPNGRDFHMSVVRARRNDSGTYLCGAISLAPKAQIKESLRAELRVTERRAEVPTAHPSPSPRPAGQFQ

IC50 [1]: 0.493 µg/mL | IL-2 secretion, mixed lymphocyte reaction (CD4+ T cells + allogeneic dendritic cells), EC50 [2]: 0.064 μg/ml | RLU, NFAT-RE reporter effector cells (PD-1) co-cultured with PD-L1 target cells, EC50 [2]: 1.13 µg/mL | EC50 [3]: 0.00681 µg/mL
B1: 1H10C4D4 (antibody, V domains shown)
VH: EVKLVESGGGLVKPGGSLKLSCAASGFTFSSYDMSWVRQTPDKRLEWVATISGGGSYTYYPDSVKGRFTISRDNAKNNLYLQMSSLRSEDTALYYCGSPYGKYGMEYWGQGTSVTVSS
VL: DIVMTQSHKFMSTSVGDRVSITCKASQDVGSVVAWYQQKPGQSPKLLIYWASTRHTGVPDRFTGSGSGTDFTLTISNVQSEDLADYFCQQYSSYPLTFGSGTKLELK
notes: Detected with goat anti-mouse IgG

IC50 [1]: 0.366 µg/mL | IL-2 secretion, mixed lymphocyte reaction (CD4+ T cells + allogeneic dendritic cells), EC50 [2]: 1.12 μg/ml | RLU, NFAT-RE reporter effector cells (PD-1) co-cultured with PD-L1 target cells, EC50 [2]: 1.42 µg/mL | EC50 [3]: 0.00872 µg/mL
B2: 154G5A5B7 (antibody, V domains shown)
VH: QVQLKESGPGLVAPSQSLSITCTVSGFSLTVYGVNWVRQPPGKGLEWLGMIWGDGTTDYNSALKSRLIINKDNSKSQVFLKMNSLQTDDTARYYCARDDYGTFLYWGQGTLVTVSA
VL: DIVMSQSPSSLAVSAGEKVTMSCKSSQSLLNSRTRKNYLAWYQQKPGQSPKLLIFWASTRESGVPDRFTGSVSGTDFTLTISSVQAEDLAVYYCKQSYTLRTFGGGTKLEIK

IC50 [1]: 0.429 µg/mL | IL-2 secretion, mixed lymphocyte reaction (CD4+ T cells + allogeneic dendritic cells), EC50 [2]: 0.929 μg/ml | RLU, NFAT-RE reporter effector cells (PD-1) co-cultured with PD-L1 target cells, EC50 [2]: 1.01 µg/mL | EC50 [3]: 0.00465 µg/mL
B3: 2E5E4D11 (antibody, V domains shown)
VH: EVKLVESGGVLVQPGGSLKLSCAASGFTFSSYTMSWVRQTPEKRLEWVAYISGGGGDTYYPDTVKGRFTISRDNAKNTLYLQMNSLKSGDTAMYYCARHGYDAACFAYWGQGTLVTVSA
VL: DIVMTQSHKFMSTSVGDRVSFTCKASQDVNTAVAWYQQKPGQSPKLLIYWASTRHTGVPDRFTGSGSGTDYTLTISSVQAEDLALYYCQQHYSIPWTVGGGTKLEIK
notes: I took the two as the same clone (likely a misprint); also called 2E5E4E11
